# Test results taken from IntAct's records for PubMed 20098421.
# B1: Trinucleotide repeat-containing gene 6C protein (Homo sapiens), Q9HCJ0 (parent)
# chain: MEEKKKKKQEEKKKKEGAQKKAADQKTKVPEPTKTCSSQPQPAGTSTSTSTSTISSSNNGKRASASGQQPAASRYLPREVPPRFRQQEQKQLLKRGQPLPTGTLTSVSPTQGAGPAGVSPPPLPGAGTQHHPSKLQPDLSHSGLADHYENSHWGQQPTYRSEANCSWDKVIIDRTDKEAWPSITGTETESASECTTDTDSASNCGSENSSMATGSAQGNFTGHTKKTNGNNGTNGALVQSPSNQSALGAGGANSNGSAARVWGVATGSSSGLAHCSVSGGDGKMDTMIGDGRSQNCWGASNSNAGINLNLNPNANPAAWPVLGHEGTVATGNPSSICSPVSAIGQNMGNQNGNPTGTLGAWGNLLPQESTEPQTSTSQNVSFSAQPQNLNTDGPNNTNPMNSSPNPINAMQTNGLPNWGMAVGMGAIIPPHLQGLPGANGSSVSQVSGGSAEGISNSVWGLSPGNPATGNSNSGFSQGNGDTVNSALSAKQNGSSSAVQKEGSGGNAWDSGPPAGPGILAWGRGSGNNGVGNIHSGAWGHPSRSTSNGVNGEWGKPPNQHSNSDINGKGSTGWESPSVTSQNPTVQPGGEHMNSWAKAASSGTTASEGSSDGSGNHNEGSTGREGTGEGRRRDKGIIDQGHIQLPRNDLDPRVLSNTGWGQTPVKQNTAWEFEESPRSERKNDNGTEAWGCAATQASNSGGKNDGSIMNSTNTSSVSGWVNAPPAAVPANTGWGDSNNKAPSGPGVWGDSISSTAVSTAAAAKSGHAWSGAANQEDKSPTWGEPPKPKSQHWGDGQRSNPAWSAGGGDWADSSSVLGHLGDGKKNGSGWDADSNRSGSGWNDTTRSGNSGWGNSTNTKANPGTNWGETLKPGPQQNWASKPQDNNVSNWGGAASVKQTGTGWIGGPVPVKQKDSSEATGWEEPSPPSIRRKMEIDDGTSAWGDPSNYNNKTVNMWDRNNPVIQSSTTTNTTTTTTTTTSNTTHRVETPPPHQAGTQLNRSPLLGPVSSGWGEMPNVHSKTENSWGEPSSPSTLVDNGTAAWGKPPSSGSGWGDHPAEPPVAFGRAGAPVAASALCKPASKSMQEGWGSGGDEMNLSTSQWEDEEGDVWNNAASQESTSSCSSWGNAPKKGLQKGMKTSGKQDEAWIMSRLIKQLTDMGFPREPAEEALKSNNMNLDQAMSALLEKKVDVDKRGLGVTDHNGMAAKPLGCRPPISKESSVDRPTFLDKDGGLVEEPTPSPFLPSPSLKLPLSHSALPSQALGGIASGLGMQNLNSSRQIPSGNLGMFGNSGAAQARTMQQPPQPPVQPLNSSQPSLRAQVPQFLSPQVQAQLLQFAAKNIGLNPALLTSPINPQHMTMLNQLYQLQLAYQRLQIQQQMLQAQRNVSGSMRQQEQQVARTITNLQQQIQQHQRQLAQALLVKQPPPPPPPPHLSLHPSAGKSAMDSFPSHPQTPGLPDLQTKEQQSSPNTFAPYPLAGLNPNMNVNSMDMTGGLSVKDPSQSQSRLPQWTHPNSMDNLPSAASPLEQNPSKHGAIPGGLSIGPPGKSSIDDSYGRYDLIQNSESPASPPVAVPHSWSRAKSDSDKISNGSSINWPPEFHPGVPWKGLQNIDPENDPDVTPGSVPTGPTINTTIQDVNRYLLKSGGSSPPSSQNATLPSSSAWPLSASGYSSSFSSIASAPSVAGKLSDIKSTWSSGPTSHTQASLSHELWKVPRNSTAPTRPPPGLTNPKPSSTWGASPLGWTSSYSSGSAWSTDTSGRTSSWLVLRNLTPQIDGSTLRTLCLQHGPLITFHLNLTQGNAVVRYSSKEEAAKAQKSLHMCVLGNTTILAEFAGEEEVNRFLAQGQALPPTSSWQSSSASSQPRLSAAGSSHGLVRSDAGHWNAPCLGGKGSSELLWGGVPQYSSSLWGPPSADDSRVIGSPTPLTTLLPGDLLSGESL
# B2: Trinucleotide repeat-containing gene 6C protein (Homo sapiens), Q9HCJ0-1 (parent)
# chain: MATGSAQGNFTGHTKKTNGNNGTNGALVQSPSNQSALGAGGANSNGSAARVWGVATGSSSGLAHCSVSGGDGKMDTMIGDGRSQNCWGASNSNAGINLNLNPNANPAAWPVLGHEGTVATGNPSSICSPVSAIGQNMGNQNGNPTGTLGAWGNLLPQESTEPQTSTSQNVSFSAQPQNLNTDGPNNTNPMNSSPNPINAMQTNGLPNWGMAVGMGAIIPPHLQGLPGANGSSVSQVSGGSAEGISNSVWGLSPGNPATGNSNSGFSQGNGDTVNSALSAKQNGSSSAVQKEGSGGNAWDSGPPAGPGILAWGRGSGNNGVGNIHSGAWGHPSRSTSNGVNGEWGKPPNQHSNSDINGKGSTGWESPSVTSQNPTVQPGGEHMNSWAKAASSGTTASEGSSDGSGNHNEGSTGREGTGEGRRRDKGIIDQGHIQLPRNDLDPRVLSNTGWGQTPVKQNTAWEFEESPRSERKNDNGTEAWGCAATQASNSGGKNDGSIMNSTNTSSVSGWVNAPPAAVPANTGWGDSNNKAPSGPGVWGDSISSTAVSTAAAAKSGHAWSGAANQEDKSPTWGEPPKPKSQHWGDGQRSNPAWSAGGGDWADSSSVLGHLGDGKKNGSGWDADSNRSGSGWNDTTRSGNSGWGNSTNTKANPGTNWGETLKPGPQQNWASKPQDNNVSNWGGAASVKQTGTGWIGGPVPVKQKDSSEATGWEEPSPPSIRRKMEIDDGTSAWGDPSNYNNKTVNMWDRNNPVIQSSTTTNTTTTTTTTTSNTTHRVETPPPHQAGTQLNRSPLLGPGRKVSSGWGEMPNVHSKTENSWGEPSSPSTLVDNGTAAWGKPPSSGSGWGDHPAEPPVAFGRAGAPVAASALCKPASKSMQEGWGSGGDEMNLSTSQWEDEEGDVWNNAASQESTSSCSSWGNAPKKGLQKGMKTSGKQDEAWIMSRLIKQLTDMGFPREPAEEALKSNNMNLDQAMSALLEKKVDVDKRGLGVTDHNGMAAKPLGCRPPISKESSVDRPTFLDKDGGLVEEPTPSPFLPSPSLKLPLSHSALPSQALGGIASGLGMQNLNSSRQIPSGNLGMFGNSGAAQARTMQQPPQPPVQPLNSSQPSLRAQVPQFLSPQVQAQLLQFAAKNIGLNPALLTSPINPQHMTMLNQLYQLQLAYQRLQIQQQMLQAQRNVSGSMRQQEQQVARTITNLQQQIQQHQRQLAQALLVKQPPPPPPPPHLSLHPSAGKSAMDSFPSHPQTPGLPDLQTKEQQSSPNTFAPYPLAGLNPNMNVNSMDMTGGLSVKDPSQSQSRLPQWTHPNSMDNLPSAASPLEQNPSKHGAIPGGLSIGPPGKSSIDDSYGRYDLIQNSESPASPPVAVPHSWSRAKSDSDKISNGSSINWPPEFHPGVPWKGLQNIDPENDPDVTPGSVPTGPTINTTIQDVNRYLLKSGGKLSDIKSTWSSGPTSHTQASLSHELWKVPRNSTAPTRPPPGLTNPKPSSTWGASPLGWTSSYSSGSAWSTDTSGRTSSWLVLRNLTPQIDGSTLRTLCLQHGPLITFHLNLTQGNAVVRYSSKEEAAKAQKSLHMCVLGNTTILAEFAGEEEVNRFLAQGQALPPTSSWQSSSASSQPRLSAAGSSHGLVRSDAGHWNAPCLGGKGSSELLWGGVPQYSSSLWGPPSADDSRVIGSPTPLTTLLPGDLLSGESL
# Variants of: B1
# Settings: with pabp1_human PABPC1, P11940
row,Variant,effect of a mutation on the interaction
1,W1602A;K1603A,disrupting interaction
2,E1595A;F1596A,disrupting interaction

# Variants of: B2
# Settings: with pabp1_human PABPC1, P11940
# Target sequence in this assay (P11940 whole entry): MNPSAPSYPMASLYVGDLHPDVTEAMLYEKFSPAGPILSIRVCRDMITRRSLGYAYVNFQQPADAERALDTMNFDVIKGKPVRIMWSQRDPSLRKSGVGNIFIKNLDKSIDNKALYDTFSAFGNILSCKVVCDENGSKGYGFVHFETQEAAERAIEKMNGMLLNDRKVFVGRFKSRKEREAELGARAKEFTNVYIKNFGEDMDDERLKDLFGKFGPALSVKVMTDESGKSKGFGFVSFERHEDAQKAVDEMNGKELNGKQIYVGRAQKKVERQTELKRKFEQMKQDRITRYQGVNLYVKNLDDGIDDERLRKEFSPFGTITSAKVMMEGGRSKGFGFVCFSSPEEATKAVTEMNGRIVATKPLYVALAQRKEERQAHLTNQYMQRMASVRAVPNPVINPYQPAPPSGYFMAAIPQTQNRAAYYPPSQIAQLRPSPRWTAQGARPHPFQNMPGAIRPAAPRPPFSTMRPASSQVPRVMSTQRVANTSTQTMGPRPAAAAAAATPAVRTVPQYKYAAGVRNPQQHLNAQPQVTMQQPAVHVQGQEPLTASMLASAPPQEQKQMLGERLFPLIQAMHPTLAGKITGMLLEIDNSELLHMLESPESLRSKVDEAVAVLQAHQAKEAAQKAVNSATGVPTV
row,Variant,effect of a mutation on the interaction
1,E1388A;F1389A;W1395A;K1396A,disrupting interaction
